The labels stand for the following.
B1: Hammerhead Ribozyme (parent)
chain: ACCGGAUGUGCUUUCCGGUCUGAUGAGUCCGUGAGGACGAAACAG

The series covers variants of B1. As to the kind of experiment: self-cleavage, relative activity (ratio to wild type); higher = more cleavage; co-transcriptional.
Regarding ACCGGAUGUGCUUUCUGGUCUGAUGAGUCCCUGAGGACGAAACAG [C16U G31C], the self-cleavage is 0.844.

As to ACCGGAUGUGCUUUCUGGUCUGAUGAGUCCAUGAGGACGAAACAG [C16U G31A], the self-cleavage is 0.731.

As for ACCGGAUGUGCUUUCUGGUCUGAUGAGUCCUUGAGGACGAAACAG [C16U G31U], the self-cleavage is 1.2.

Take ACCGGAUGUGCUUUCUGGUCUGAUGAGCCCGUGAGGACGAAACAG [C16U U28C]: the self-cleavage came out at 0.874.

Regarding ACCGGAUGUGCUUUCUGGUCUGAUGAGACCGUGAGGACGAAACAG [C16U U28A], the self-cleavage came to 0.576.

ACCGGAUGUGCUUUCUGGUCUGAUGAGGCCGUGAGGACGAAACAG [C16U U28G]: the self-cleavage was determined as 0.798.

Take ACCGGAUGUGCUUUCUGGUCUGACGAGUCCGUGAGGACGAAACAG [C16U U24C]: the self-cleavage is 1.12.

For ACCGGAUGUGCUUUCUGGUCUGAGGAGUCCGUGAGGACGAAACAG [C16U U24G], the self-cleavage came to 1.16.

As for ACCGGAUGUGCUUUCUGGUCUGAAGAGUCCGUGAGGACGAAACAG [C16U U24A], the self-cleavage turned out to be 0.747.

Consider ACCGGAUGUGCUUUCUGGUCUGAUGAGUCCGUCAGGACGAAACAG [C16U G33C], for which the self-cleavage is 1.17.

For the variant ACCGGAUGUGCUUUCUGGUCUGAUGAGUCCGUUAGGACGAAACAG [C16U G33U], the self-cleavage came to 0.945.

ACCGGAUGUGCUUUCUGGUCUGAUGAGUCCGUAAGGACGAAACAG [C16U G33A]: the self-cleavage was 1.14.

In the case of ACCGGAUGUGCUUUCUGGUCUCAUGAGUCCGUGAGGACGAAACAG [C16U G22C], the self-cleavage was determined as 0.318.

Consider ACCGGAUGUGCUUUCUGGUCUAAUGAGUCCGUGAGGACGAAACAG [C16U G22A], for which the self-cleavage was found to be 0.386.

Regarding ACCGGAUGUGCUUUCUGGUCUUAUGAGUCCGUGAGGACGAAACAG [C16U G22U], the self-cleavage was determined as 0.327.

For ACCGGAUGUGCUUUCUGGUCUGAUGAGUCCGUGACGACGAAACAG [C16U G35C], the self-cleavage is 0.434.

In the case of ACCGGAUGUGCUUUCUGGUCUGAUGAGUCCGUGAAGACGAAACAG [C16U G35A], the self-cleavage was 0.911.

ACCGGAUGUGCUUUCUGGUCUGAUGAGUCCGUGAUGACGAAACAG [C16U G35U]: the self-cleavage was 0.735.

ACCGGAUGUGCUUUCUGGUCGGAUGAGUCCGUGAGGACGAAACAG [C16U U21G]: the self-cleavage was 0.588.

Consider ACCGGAUGUGCUUUCUGGUCCGAUGAGUCCGUGAGGACGAAACAG [C16U U21C], for which the self-cleavage came out at 0.473.

On to ACCGGAUGUGCUUUCUGGUCAGAUGAGUCCGUGAGGACGAAACAG [C16U U21A], for which the self-cleavage is 0.698.

In the case of ACCGGAUGUGCUUUCUGGCCUGAUGAGUCCGUGAGGACGAAACAG [C16U U19C], the self-cleavage was 0.572.

In the case of ACCGGAUGUGCUUUCUGGACUGAUGAGUCCGUGAGGACGAAACAG [C16U U19A], the self-cleavage was found to be 0.344.

In the case of ACCGGAUGUGCUUUCUGGGCUGAUGAGUCCGUGAGGACGAAACAG [C16U U19G], the self-cleavage turned out to be 0.359.

Turning to ACCGGAUGUGCUUUCCAGUCUGAUGAGUCCGUGAGGGCGAAACAG [G17A A37G], the self-cleavage is 0.604.

For the variant ACCGGAUGUGCUUUCCAGUCUGAUGAGUCCGUGAGGUCGAAACAG [G17A A37U], the self-cleavage worked out at 0.528.

In the case of ACCGGAUGUGCUUUCCAGUCUGAUGAGUCCGUGAGGCCGAAACAG [G17A A37C], the self-cleavage is 0.642.

Consider ACCGGAUGUGCUUUCUGGUCUGAUGAGUCCGGGAGGACGAAACAG [C16U U32G], for which the self-cleavage stood at 1.

On to ACCGGAUGUGCUUUCUGGUCUGAUGAGUCCGCGAGGACGAAACAG [C16U U32C], for which the self-cleavage stood at 0.879.

For the variant ACCGGAUGUGCUUUCUGGUCUGAUGAGUCCGAGAGGACGAAACAG [C16U U32A], the self-cleavage came out at 1.02.

Regarding ACCGGAUGUGCUUUCCAGUCUGAUGAGUCCGUGAGGACGAAACAG [G17A], the self-cleavage was found to be 0.768.

Turning to ACCGGAUGUGCUUUCCAGUCUGAUGAGUCCGUGAGGACGGAACAG [G17A A40G], the self-cleavage worked out at 0.361.

Take ACCGGAUGUGCUUUCCAGUCUGAUGAGUCCGUGAGGACGCAACAG [G17A A40C]: the self-cleavage amounted to 0.347.

ACCGGAUGUGCUUUCCAGUCUGAUGAGUCCGUGGGGACGAAACAG [G17A A34G]: the self-cleavage was 0.56.

In the case of ACCGGAUGUGCUUUCCAGUCUGAUGAGUCCGUGUGGACGAAACAG [G17A A34U], the self-cleavage amounted to 0.613.

Consider ACCGGAUGUGCUUUCCAGUCUGAUGAGUCCGUGCGGACGAAACAG [G17A A34C], for which the self-cleavage was 0.562.

In the case of ACCGGAUGUGCUUUCUGGUCUGAUGAGUCCGUGAGUACGAAACAG [C16U G36U], the self-cleavage was 0.507.

In the case of ACCGGAUGUGCUUUCUGGUCUGAUGAGUCCGUGAGCACGAAACAG [C16U G36C], the self-cleavage is 0.375.

With ACCGGAUGUGCUUUCUGGUCUGAUGAGUCCGUGAGAACGAAACAG [C16U G36A], the self-cleavage amounted to 0.636.

For the variant ACCGGAUGUGCUUUCCAGUCUGAUGGGUCCGUGAGGACGAAACAG [G17A A26G], the self-cleavage stood at 0.297.

Turning to ACCGGAUGUGCUUUCCAGUCUGAUGUGUCCGUGAGGACGAAACAG [G17A A26U], the self-cleavage stood at 0.447.

As to ACCGGAUGUGCUUUCCAGUCUGAUGCGUCCGUGAGGACGAAACAG [G17A A26C], the self-cleavage was 0.272.

On to ACCGGAUGUGCUUUCUGGUCUGAUCAGUCCGUGAGGACGAAACAG [C16U G25C], for which the self-cleavage was found to be 0.265.

Turning to ACCGGAUGUGCUUUCUGGUCUGAUUAGUCCGUGAGGACGAAACAG [C16U G25U], the self-cleavage came to 0.356.

With ACCGGAUGUGCUUUCUGGUCUGAUAAGUCCGUGAGGACGAAACAG [C16U G25A], the self-cleavage turned out to be 0.338.

Take ACCGGAUGUGCUUUCUGGUCUGAUGAGUCCGUGAGGACAAAACAG [C16U G39A]: the self-cleavage is 0.327.

For the variant ACCGGAUGUGCUUUCUGGUCUGAUGAGUCCGUGAGGACCAAACAG [C16U G39C], the self-cleavage worked out at 0.391.

As for ACCGGAUGUGCUUUCUGGUCUGAUGAGUCCGUGAGGACUAAACAG [C16U G39U], the self-cleavage was 0.378.

ACCGGAUGUGCUUUCCAGUCUGUUGAGUCCGUGAGGACGAAACAG [G17A A23U]: the self-cleavage was determined as 0.315.

In the case of ACCGGAUGUGCUUUCCAGUCUGCUGAGUCCGUGAGGACGAAACAG [G17A A23C], the self-cleavage amounted to 0.325.

For ACCGGAUGUGCUUUCCAGUCUGGUGAGUCCGUGAGGACGAAACAG [G17A A23G], the self-cleavage amounted to 0.306.

As to ACCGGAUGUGCUUUCUGGUCUGAUGAGUCCGUGAGGACGAAACAA [C16U G45A], the self-cleavage worked out at 0.89.

For ACCGGAUGUGCUUUCUGGUCUGAUGAGUCCGUGAGGACGAAACAU [C16U G45U], the self-cleavage turned out to be 0.688.

Turning to ACCGGAUGUGCUUUCUGGUCUGAUGAGUCCGUGAGGACGAAACAC [C16U G45C], the self-cleavage worked out at 0.921.

Turning to ACCGGAUGUGCUUUCUGGUCUGAUGACUCCGUGAGGACGAAACAG [C16U G27C], the self-cleavage came to 0.783.

Consider ACCGGAUGUGCUUUCUGGUCUGAUGAUUCCGUGAGGACGAAACAG [C16U G27U], for which the self-cleavage was 0.551.

Consider ACCGGAUGUGCUUUCUGGUCUGAUGAAUCCGUGAGGACGAAACAG [C16U G27A], for which the self-cleavage turned out to be 0.858.

The record behind these values is the RNAGym collection of RNA variant scans (doi:10.7554/elife.80360).
